Data reported in the supplement of paper PMC5998384.

Tests used:
HeLa Kyoto [1] = test: solubility change mitosis vs G1/S (difference of NP-40 vs SDS log2 ratios) (log2 ratio difference); higher = more soluble in mitosis
HeLa Kyoto [2] = test: melting temperature (median over replicates), in situ; higher = more thermally stable
HeLa Kyoto [3] = test: solubility in G1/S (NP-40 vs SDS abundance) (log2 ratio); higher = more soluble; conditions: cell cycle stage: G1/S
HeLa Kyoto [4] = test: thermal stability score vs G1/S (z-score of summed log2 fold changes over temperatures); higher = more thermally stable than in G1/S
[5] = cell cycle stage: early G1 (4.5 h after nocodazole release)
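For melting temperature (median over replicates), in situ in this document: HeLa Kyoto cells synchronized by double thymidine or nocodazole block, proteins quantified by TMT10plex mass spectrometry, three independent biological replicates.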
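For solubility change mitosis vs G1/S (difference of NP-40 vs SDS log2 ratios) in this document: synchronized HeLa Kyoto cells (double thymidine block for G1/S, nocodazole release for mitosis), protein amounts in NP-40 versus SDS lysates quantified by mass spectrometry, three biological replicates.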
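For solubility in G1/S (NP-40 vs SDS abundance) in this document: HeLa Kyoto cells arrested at G1/S by double thymidine block, proteins quantified by TMT10plex mass spectrometry in mild NP-40 versus SDS extracts, three biological replicates.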
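For thermal stability score vs G1/S (z-score of summed log2 fold changes over temperatures) in this document: synchronized HeLa Kyoto cells, proteins quantified by TMT10plex mass spectrometry, three biological replicates, mitosis taken 0.5 h after nocodazole release, G1/S directly after double thymidine block.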

Sequence | solubility change mitosis (log2) (HeLa Kyoto [1]) | melting temperature (HeLa Kyoto [2]; cell cycle stage: G1/S) [°C] | melting temperature (HeLa Kyoto [2]; cell cycle stage: mitosis) [°C] | solubility in G1/S (log2) (HeLa Kyoto [3]) | thermal stability score (HeLa Kyoto [4]; [5]) | thermal stability score (HeLa Kyoto [4]; cell cycle stage: mitosis)
MATAAYEQLKLHITPEKFYVEACDDGADDVLTIDRVSTEVTLAVKKDVPPSAVTRPIFGILGTIHLVAGNYLIVITKKIKVGEFFSHVVWKATDFDVLSYKKTMLHLTDIQLQDNKTFLAMLNHVLNVDGFYFSTTYDLTHTLQRLSNTSPEFQEMSLLERADQRFVWNGHLLRELSAQPEVHRFALPVLHGFITMHSCSINGKYFDWILISRRSCFRAGVRYYVRGIDSEGHAANFVETEQIVHYNGSKASFVQTRGSIPVFWSQRPNLKYKPLPQISKVANHMDGFQRHFDSQVIIYGKQVIINLINQKGSEKPLEQTFATMVSSLGSGMMRYIAFDFHKECKNMRWDRLSILLDQVAEMQDELSYFLVDSAGQVVANQEGVFRSNCMDCLDRTNVIQSLLARRSLQAQLQRLGVLHVGQKLEEQDEFEKIYKNAWADNANACAKQYAGTGALKTDFTRTGKRTHLGLIMDGWNSMIRYYKNNFSDGFRQDSIDLFLGNYSVDELESHSPLSVPRDWKFLALPIIMVVAFSMCIICLLMAGDTWTETLAYVLFWGVASIGTFFIILYNGKDFVDAPRLVQKEKID [SACM1L] | -0.111 | 50.7 | 50.7 | -0.172 | 1.77 | 2.34
MATANFGKIQIGIYVEIKRSDGRIHQAMVTSLNEDNESVTVEWIENGDTKGKEIDLESIFSLNPDLVPDEEIEPSPETPPPPASSAKVNKIVKNRRTVASIKNDPPSRDNRVVGSARARPSQFPEQSSSAQQNGSVSDISPVQAAKKEFGPPSRRKSNCVKEVEKLQEKREKRRLQQQELREKRAQDVDATNPNYEIMCMIRDFRGSLDYRPLTTADPIDEHRICVCVRKRPLNKKETQMKDLDVITIPSKDVVMVHEPKQKVDLTRYLENQTFRFDYAFDDSAPNEMVYRFTARPLVETIFERGMATCFAYGQTGSGKTHTMGGDFSGKNQDCSKGIYALAARDVFLMLKKPNYKKLELQVYATFFEIYSGKVFDLLNRKTKLRVLEDGKQQVQVVGLQEREVKCVEDVLKLIDIGNSCRTSGQTSANAHSSRSHAVFQIILRRKGKLHGKFSLIDLAGNERGADTSSADRQTRLEGAEINKSLLALKECIRALGRNKPHTPFRASKLTQVLRDSFIGENSRTCMIATISPGMASCENTLNTLRYANRVKELTVDPTAAGDVRPIMHHPPNQIDDLETQWGVGSSPQRDDLKLLCEQNEEEVSPQLFTFHEAVSQMVEMEEQVVEDHRAVFQESIRWLEDEKALLEMTEEVDYDVDSYATQLEAILEQKIDILTELRDKVKSFRAALQEEEQASKQINPKRPRAL [KIF2A] | -0.0102 | 50 | 50.1 | -0.149 | 1.7 | 1.64
MATATEQWVLVEMVQALYEAPAYHLILEGILILWIIRLLFSKTYKLQERSDLTVKEKEELIEEWQPEPLVPPVPKDHPALNYNIVSGPPSHKTVVNGKECINFASFNFLGLLDNPRVKAAALASLKKYGVGTCGPRGFYGTFDVHLDLEDRLAKFMKTEEAIIYSYGFATIASAIPAYSKRGDIVFVDRAACFAIQKGLQASRSDIKLFKHNDMADLERLLKEQEIEDQKNPRKARVTRRFIVVEGLYMNTGTICPLPELVKLKYKYKARIFLEESLSFGVLGEHGRGVTEHYGINIDDIDLISANMENALASIGGFCCGRSFVIDHQRLSGQGYCFSASLPPLLAAAAIEALNIMEENPGIFAVLKEKCGQIHKALQGISGLKVVGESLSPAFHLQLEESTGSREQDVRLLQEIVDQCMNRSIALTQARYLEKEEKCLPPPSIRVVVTVEQTEEELERAASTIKEVAQAVLL [SPTLC1] | -0.06 | 51.5 | 52 | -0.0163 | 0.272 | -0.0699
MATATIALQVNGQQGGGSEPAAAAAVVAAGDKWKPPQGTDSIKMENGQSTAAKLGLPPLTPEQQEALQKAKKYAMEQSIKSVLVKQTIAHQQQQLTNLQMAAVTMGFGDPLSPLQSMAAQRQRALAIMCRVYVGSIYYELGEDTIRQAFAPFGPIKSIDMSWDSVTMKHKGFAFVEYEVPEAAQLALEQMNSVMLGGRNIKVGRPSNIGQAQPIIDQLAEEARAFNRIYVASVHQDLSDDDIKSVFEAFGKIKSCTLARDPTTGKHKGYGFIEYEKAQSSQDAVSSMNLFDLGGQYLRVGKAVTPPMPLLTPATPGGLPPAAAVAAAAATAKITAQEAVAGAAVLGTLGTPGLVSPALTLAQPLGTLPQAVMAAQAPGVITGVTPARPPIPVTIPSVGVVNPILASPPTLGLLEPKKEKEEEELFPESERPEMLSEQEHMSISGSSARHMVMQKLLRKQESTVMVLRNMVDPKDIDDDLEGEVTEECGKFGAVNRVIIYQEKQGEEEDAEIIVKIFVEFSIASETHKAIQALNGRWFAGRKVVAEVYDQERFDNSDLSA [PUF60] | 0.0253 | 49.1 | 50.6 | 0.0524 | 1.71 | 5.96
MATCIWLRSCGARRLGSTFPGCRLRPRAGGLVPASGPAPGPAQLRCYAGRLAGLSAALLRTDSFVGGRWLPAAATFPVQDPASGAALGMVADCGVREARAAVRAAYEAFCRWREVSAKERSSLLRKWYNLMIQNKDDLARIITAESGKPLKEAHGEILYSAFFLEWFSEEARRVYGDIIHTPAKDRRALVLKQPIGVAAVITPWNFPSAMITRKVGAALAAGCTVVVKPAEDTPFSALALAELASQAGIPSGVYNVIPCSRKNAKEVGEAICTDPLVSKISFTGSTTTGKILLHHAANSVKRVSMELGGLAPFIVFDSANVDQAVAGAMASKFRNTGQTCVCSNQFLVQRGIHDAFVKAFAEAMKKNLRVGNGFEEGTTQGPLINEKAVEKVEKQVNDAVSKGATVVTGGKRHQLGKNFFEPTLLCNVTQDMLCTHEETFGPLAPVIKFDTEEEAIAIANAADVGLAGYFYSQDPAQIWRVAEQLEVGMVGVNEGLISSVECPFGGVKQSGLGREGSKYGIDEYLELKYVCYGGL [ALDH5A1] | -0.0409 | 56.1 | 54.8 | 0.125 | 1.08 | 0.0757
MATDTSQGELVHPKALPLIVGAQLIHADKLGEKVEDSTMPIRRTVNSTRETPPKSKLAEGEEEKPEPDISSEESVSTVEEQENETPPATSSEAEQPKGEPENEEKEENKSSEETKKDEKDQSKEKEKKVKKTIPSWATLSASQLARAQKQTPMASSPRPKMDAILTEAIKACFQKSGASVVAIRKYIIHKYPSLELERRGYLLKQALKRELNRGVIKQVKGKGASGSFVVVQKSRKTPQKSRNRKNRSSAVDPEPQVKLEDVLPLAFTRLCEPKEASYSLIRKYVSQYYPKLRVDIRPQLLKNALQRAVERGQLEQITGKGASGTFQLKKSGEKPLLGGSLMEYAILSAIAAMNEPKTCSTTALKKYVLENHPGTNSNYQMHLLKKTLQKCEKNGWMEQISGKGFSGTFQLCFPYYPSPGVLFPKKEPDDSRDEDEDEDESSEEDSEDEEPPPKRRLQKKTPAKSPGKAASVKQRGSKPAPKVSAAQRGKARPLPKKAPPKAKTPAKKTRPSSTVIKKPSGGSSKKPATSARKEVKLPGKGKSTMKKSFRVKK [HP1BP3] | 0.474 | 51.8 | 51.5 | -1.01 | 0.824 | 0.423
MATKIDKEACRAAYNLVRDDGSAVIWVTFKYDGSTIVPGEQGAEYQHFIQQCTDDVRLFAFVRFTTGDAMSKRSKFALITWIGENVSGLQRAKTGTDKTLVKEVVQNFAKEFVISDRKELEEDFIKSELKKAGGANYDAQTE [COTL1] | 0.0356 | 52.4 | 52.8 | 0.108 | 3.44 | 1.43
MATKTAGVGRWEVVKKGRRPGVGAGAGGRGGGRNRRALGEANGVWKYDLTPAIQTTSTLYERGFENIMKRQNKEQVPPPAVEPKKPGNKKQPKKVATPPNQNQKQGRFRSLEEALKALDVADLQKELDKSQSVFSGNPSIWLKDLASYLNYKLQAPLSEPTLSQHTHDYPYSLVSRELRGIIRGLLAKAAGSLELFFDHCLFTMLQELDKTPGESLHGYRICIQAILQDKPKIATANLGKFLELLRSHQSRPAKCLTIMWALGQAGFANLTEGLKVWLGIMLPVLGIKSLSPFAITYLDRLLLMHPNLTKGFGMIGPKDFFPLLDFAYMPNNSLTPSLQEQLCQLYPRLKVLAFGAKPDSTLHTYFPSFLSRATPSCPPEMKKELLSSLTECLTVDPLSASVWRQLYPKHLSQSSLLLEHLLSSWEQIPKKVQKSLQETIQSLKLTNQELLRKGSSNNQDVVTCDMACKGLLQQVQGPRLPWTRLLLLLLVFAVGFLCHDLRSHSSFQASLTGRLLRSSGFLPASQQACAKLYSYSLQGYSWLGETLPLWGSHLLTVVRPSLQLAWAHTNATVSFLSAHCASHLAWFGDSLTSLSQRLQIQLPDSVNQLLRYLRELPLLFHQNVLLPLWHLLLEALAWAQEHCHEACRGEVTWDCMKTQLSEAVHWTWLCLQDITVAFLDWALALISQQ [TMEM214] | 0.000207 | 51.1 | 49.8 | -0.173 | -1.35 | -0.782
